Assay [1] has as its target HLA-B*15:01. In words: IEDB peptide-MHC binding, purified MHC/competitive/radioactivity; filed as Kd, often an IC50 or EC50 that approximates it; ≥ and ≤ were set here for values at or beyond the usual limits of such assays.
Assay [2] deals with HLA-A*24:02. In words: IEDB peptide-MHC binding, purified MHC/competitive/fluorescence; ≥ and ≤ were set here for values at or beyond the usual limits of such assays.
Assay [3] addresses HLA-A*02:01. The description is as above.
In assay [4] the target is HLA-A*01:01. Kind of assay: IEDB peptide-MHC binding, purified MHC/competitive/radioactivity; filed as Kd, often an IC50 or EC50 that approximates it; ≥ and ≤ were set here for values at or beyond the usual limits of such assays.
For assay [5], the target named is HLA-A*26:01. The assay is described as above.
Assay [6] deals with HLA-A*32:01. Described as above.
The target in assay [7] is HLA-A*30:01. Described as above.
Assay [8] concerns the target HLA-A*29:02. The assay is described as above.
The target in assay [9] is HLA-A*30:02. The description is as above.
Assay [10] has as its target HLA-A*23:01. The assay is described as above.
In assay [11] the target is HLA-A*24:02. Described as above.
The target of assay [12] is HLA-A*68:01. The assay is described as above. Particulars: source organism: Dengue virus 1 Brazil/97-11/1997.
[13] abbreviates: source organism: Vaccinia virus WR.
Setting [14] is: source organism: Zaire ebolavirus.
Where [15] appears, read: source organism: Mammarenavirus brazilense.
Where [16] appears, read: source organism: Dengue virus 3 Martinique/1243/1999.
The mark [17] stands for this setting: source organism: SARS coronavirus Tor2.
The mark [18] stands for this setting: source organism: Mammarenavirus juninense.
[19] abbreviates: source organism: Dengue virus 2 Jamaica/1409/1983.
The mark [20] stands for this setting: source organism: Vaccinia virus.
The mark [21] stands for this setting: source organism: Mammarenavirus lassaense.
The mark [22] stands for this setting: source organism: Triticum aestivum.

Where only a bound is given, the exact number is not on record here.

For the sequence LFRFFECTF, in assay [1] (setting [13]), the Kd was determined as 3030 nM.

Sequence KNSQKGQHI came in with an IC50 in assay [2] (setting [14]) of at least 615000 nM.

Regarding IGIEILNTI, the IC50 in [2] (setting [13]) amounted to 131 nM; in assay [3] (setting [13]), 701 nM.

For SLTEEFYHSY, the Kd in [4] (setting [15]) was 129 nM; in assay [5] (setting [15]), 3410 nM; in [6] (setting [15]), at least 26100 nM; in assay [7] (setting [15]) it was at least 58500 nM; in [8] (setting [15]) it was 1440 nM; in assay [9] (setting [15]), 225 nM.

Regarding LIILSAVAI, in assay [6] (setting [13]), the dissociation constant (Kd) stood at 125 nM.

For VTAETQNSSF, the values for the Kd in assay [4] (setting [16]), in assay [5] (setting [16]) and in assay [1] (setting [16]) were 16200 nM, at least 20400 nM and 25.9 nM, respectively.

For LTALRLCAY, the Kd in [4] (setting [17]) is 7.86 nM; in assay [5] (setting [17]), 961 nM; in [10] (setting [17]), 7110 nM; in [11] (setting [17]), at least 35300 nM; in assay [8] (setting [17]), 136 nM; in [9] (setting [17]) it was 54.5 nM.

KTGEKSRCY: the Kd in assay [4] (setting [18]) is at least 22500 nM; in [5] (setting [18]), at least 77900 nM; in assay [6] (setting [18]), 116 nM; in assay [7] (setting [18]) it was 2480 nM; in [8] (setting [18]) it was at least 78900 nM; in assay [9] (setting [18]) it was 2190 nM.

As to AQKRAAAGIM, the Kd in assay [1] (setting [19]) came out at 68.7 nM.

In the case of LVVGEKACL, the concentration for half-maximal inhibition (IC50) was at least 139000 nM in assay [2] (setting [14]) and at least 115000 nM in assay [3] (setting [14]).

In the case of RIFFGKTSI, the equilibrium dissociation constant (Kd) in [6] (setting [13]) turned out to be 1.32 nM.

With AWEILKFLI, the dissociation constant (Kd) in assay [4] (setting [17]) is at least 78100 nM; in assay [5] (setting [17]) it was at least 57000 nM; in [10] (setting [17]) it was 3630 nM; in assay [11] (setting [17]) it was 2960 nM; in [8] (setting [17]), 4100 nM; in assay [9] (setting [17]), at least 25300 nM.

As to FWITAIYVF, the Kd in [4] (setting [17]) worked out at 629 nM; in assay [5] (setting [17]), 547 nM; in assay [10] (setting [17]), 163 nM; in assay [11] (setting [17]), 853 nM; in assay [8] (setting [17]) it was 26.9 nM; in [9] (setting [17]), 22.8 nM.

Regarding NMRDLIVTF, in assay [1] (setting [13]), the Kd is 8.26 nM.

As to LMILLTGGAM, in assay [1] (setting [16]), the dissociation constant Kd is 2.91 nM.

The sequence EGAAIGLAW showed a 50% inhibitory concentration (IC50) in [2] (setting [14]) of 2320 nM.

As to KFPYEGGKV, the half-maximal inhibitory concentration (IC50) in assay [2] (setting [20]) is at least 130000 nM; in [3] (setting [20]), at least 96100 nM.

As to KGCKLTETM, the Kd in [1] (setting [13]) was determined as 1250 nM.

In the case of DYGLVSKFM, in assay [2] (setting [13]), the 50% inhibitory concentration (IC50) was 559 nM.

On to GLAAEWVLAY, for which the dissociation constant Kd in [4] (setting [17]) is 466 nM; in assay [5] (setting [17]) it was 363 nM; in [10] (setting [17]), at least 70000 nM; in assay [11] (setting [17]), at least 70300 nM; in [8] (setting [17]), 69.4 nM; in assay [9] (setting [17]) it was 858 nM.

Turning to FLHNYILYA, the dissociation constant (Kd) in assay [1] (setting [13]) turned out to be 1560 nM.

EWAMEKSSK yielded an IC50 in assay [2] (setting [20]) of at least 382000 nM.

For AYNVVNKGHF, the dissociation constant Kd in assay [4] (setting [17]) was at least 55200 nM; in assay [5] (setting [17]), at least 37500 nM; in assay [10] (setting [17]), 476 nM; in [11] (setting [17]) it was 316 nM; in assay [8] (setting [17]), 978 nM; in [9] (setting [17]) it was 11200 nM.

With VTDVTLLMA, the dissociation constant Kd was 8.7 nM in [4] (setting [15]); at least 77900 nM in [5] (setting [15]); 18200 nM in [10] (setting [15]); at least 77500 nM in assay [11] (setting [15]); at least 23400 nM in [8] (setting [15]); 423 nM in assay [9] (setting [15]).

Turning to GVVAFLILP, the IC50 in assay [2] (setting [14]) was at least 194000 nM; in assay [3] (setting [14]) it was 53900 nM.

In the case of WLPMTVAAM, the dissociation constant (Kd) in [1] (source organism: Dengue virus 3 Sri Lanka/1266/2000) stood at 177 nM.

Consider VEIALYQPI, for which the Kd in [4] (setting [21]) was at least 78100 nM; in assay [5] (setting [21]), at least 77900 nM; in assay [10] (setting [21]) it was 1480 nM; in assay [11] (setting [21]) it was at least 38000 nM; in [8] (setting [21]), at least 78900 nM; in assay [9] (setting [21]), at least 40100 nM.

As to QYPLGQGSF, the Kd in [4] (setting [22]) is at least 71000 nM; in assay [5] (setting [22]) it was at least 77900 nM; in assay [10] (setting [22]), 8090 nM; in assay [11] (setting [22]), 1450 nM; in assay [8] (setting [22]), at least 22900 nM; in assay [9] (setting [22]) it was 1460 nM.

As for KVIQLSRKTF, the Kd in [1] (setting [19]) worked out at 49.5 nM.

For EVMRSRWSRK, the figures for the Kd in assay [6] (source organism: Dengue virus 1 Brazil/97-11/1997) and in assay [12] were at least 50100 nM and 8.94 nM, respectively.

Consider RISRFANLI, for which the dissociation constant Kd in assay [6] (setting [13]) turned out to be 6.23 nM.

Broadly, the Kd is a measure of binding affinity in units of concentration. As a reminder, the IC50 is the concentration needed to halve the response being measured. A lower IC50 goes with greater potency in that assay.

These data come from the Immune Epitope Database (IEDB).
